According to US20110136145A1, “METHODS FOR PROMOTING FUSION AND REPROGRAMMING OF SOMATIC CELLS” (THE JOHNS HOPKINS UNIVERSITY, priority 2008, published 2011):

Key:
[1] = tested on: ESC-induced Oct4-GFP re-activation in NSCs; assay: CLEAR analysis of ESC fusion-induced reprogramming (PEG-induced fusion of Z-Red ESCs and CIPOE NSCs, flow cytometry)
Description: CLEAR strategy uses engineered ESCs and NSCs for monitoring fusion-induced DsRed expression and reprogramming-induced GFP expression (FIG. 1A). Z-Red ESCs were derived from a clonal ESC line containing one copy of a transgene (CAG-loxP-LacZ::neomycin-polyA-loxP-DsRed.T3) as a Cre recombination excision reporter.
Adult NSCs were isolated from Oct4-GFP (GOF 18-A PE-EGFP) transgenic mice and transduced by retroviruses to stably co-express Cre and the puromycin resistance gene through a bicistronic cassette (termed CIPOE NSCs hereafter). Somatic cells with Oct4-GFP transgene integration have been used previously to investigate reprogramming, in which the regulatory elements of Oct4 direct reliable GFP reactivation from somatic genomes in reprogrammed ESC-like hybrid cells (also see FIG. 3). Multiple CIPOE NSC lines from Oct4-GFP transgenic mice were established, characterized and used for subsequent cell fusion experiments.
To quantitatively analyze the reprogramming-induced Oct4-GFP re-activation, dual-color flow cytometry was used to display and measure the cell population that underwent PEG-induced cell fusion. Viable cells were identified by their typical FSC (Forward Scatter) and SSC (Side Scatter) properties. To ensure appropriate gating for […] and DsRed+ events and to compensate the spectrum crossover of GFP and DsRed signals, the system was first calibrated using multiple control cells, including Z-Red ESCs, CIPOE NSCs, mixed Z-Red ESCs and CIPOE NSCs without PEG. Z-Red ESCs transfected with a constitutive Cre expression plasmid, and CIPOE NSCs transfected with a Cre excision reporter plasmid (FIG. 4A).
ESC fusion-induced Oct4 re-activation from NSCs was quantitatively measured using two different approaches. In the first approach, the reprogramming frequency (Rf) is determined by the ratio of GFP DsRed+ cells to total DsRed+ cells. […] In the second approach, the reprogramming efficacy is determined by the distribution of GFP fluorescence intensities of individual cells from the DsRed+ population (FIG. 4C). This analysis provides a measurement of the efficiency of Oct4-GFP re-activation in NSCs after successful fusion.
The protocol was optimized for PEG-induced cell fusion between ESCs and NSCs to achieve maximum efficiency and minimal toxicity. Equal numbers of ESCs and NSCs were mixed thoroughly and spun down in PBS. The pellet was loosened by gentle tapping and 50% PEG (500 μl for 1×10^7 cells) was added to the cells continuously over one minute while swirling the mixture in 37° C. water bath Next, 2 ml of ESC medium was layered on top of PEG-cell mixture and one-minute incubation in 37° C., followed by low-speed centrifugation at 1,800 rpm for 5 minutes. After removing the supernatant, the pellet was incubated with ESC medium for one minute, washed, resuspended and plated onto gelatin-coated dishes and grown in Dubelcco's Modified Eagle's Medium, 15% fetal bovine serum supplemented with mouse leukemia inhibitory factor (ESGRO), 0.1 mM nonessential amino acids, 0.1 mM β-mercaptoethanol, and 50 U/ml penicillin/50 μg/ml streptomycin (ESC medium). […] The following pharmacological inhibitors were applied in ESC-fusion experiments only during the first 48 hours after fusion. DMOG (5-10 μM; BioMol), Anacardic acid (5-10 μM; Calbiochem), Trichostatin A (TSA, 100 nM-1 μM; Sigma) and azidothymidine (AZT, 1-5 μM; Sigma).

Oct4 = assay: Conventional RT-PCR and quantitative PCR of endogenous Oct4 expression in adult NSCs; type: cell-based, mouse
Procedure: (§1) (A) is a schematic drawing of Oct4 promoter with 16 CpG sites, which are located between the proximal enhancer and exon 1. Bisulfite sequencing analysis is performed for genomic DNA extracted from CIPOE, Z-Red ESCs, fusion clone B3, CIPOE-shControl and CIPOE-shG9a NSCs. (B, C) show conventional RT-PCR (B) and quantitative real-time PCR(C) are used to compare the mRNA abundance of Oct4 in CIPOE, Z-Red ESCs, fusion clone B3, CIPOE-shControl and CIPOE-shG9a NSCs. Data represent mean+SEM. (n=3, *. P<0.01, Student's t-test).
Reprogramming requires erasure of the somatic epigenoine including both histone and DNA modification. Next it was further tested whether DNA demethylation of pluripotency gene Oct4 induced by ESC-mediated reprogramming may partially account for the facilitating effects of histone demethylation during reprogramming. […] The impact of G9a knockdown on endogenous Oct4 expression was also evaluated. […] The mRNA abundance of Oct4 expression measured in bulk adult NSC cultures with G9a knocking-down reached around 10% of that in ESCs, while little expression was detected in CIPOE or CIPOE cells expressing the control shRNA.
(§2) For real-time quantitative PCR, total RNAs were purified using RNAeasy kit (Qiagen) and converted to cDNA by SuperScript III (Invitrogen). Triplicate cDNA samples were added to a SYBR-green based quantitative PCR reaction mix and analyzed using the ddCt methods. […]

G9a = assay: Quantitative real-time PCR of G9a expression in CIPOE NSCs; type: cell-based, mouse; conditions: CIPOE cells
Description: Shown is a summary of quantitative real-time PCR analysis of the expression level of G9a in Z-Red ESCs, CIPOE NSCs, CIPOE NSCs with control shRNA or G9a-targeted shRNA. The mRNA abundance was normalized to the levels in CIPOE cells. Values represent mean+SEM (n=3; * P<0.01, Students t-test). […] Shown are results from cell fusion experiments between Z-Red and CIPOE, CIPOE-shControl, or CIPOE-shG9a cells. Values represent mean+SEM (n=3; *- P<0.01 Students t-test). (C) Summary of reprogramming efficacy. Cumulative distribution plots of DsRed+ population with graded GFP fluorescence intensities are shown for comparison of the reprogramming efficacy of Z-Red ESCs with CIPOE-shControl, or CIPOE-shG9a cells at day 2 and day 4 after cell fusion. Values represent mean±SEM (n=3; *: P<0.01, Kolmogorov-Smirnov test).
Next, the molecular identities of epigenetic factors that play critical roles in reprogramming were examined. […] Using a previously validated small short-hairpin RNA (shRNA) for mouse G9a, the expression of endogenous G9a was knocked down in CIPOE cells, as shown by quantitative real-time PCR (FIG. 7A). […]
as §2

Oct4 promoter = assay: Bisulfite sequencing of Oct4 promoter in CIPOE NSCs; type: cell-based, mouse; conditions: independent of cell fusion
Procedure: as §1
Reprogramming requires erasure of the somatic epigenoine including both histone and DNA modification. […] The impact of G9a knockdown on endogenous Oct4 expression was also evaluated. […] The mRNA abundance of Oct4 expression measured in bulk adult NSC cultures with G9a knocking-down reached around 10% of that in ESCs, while little expression was detected in CIPOE or CIPOE cells expressing the control shRNA.
For bisulfite genomic sequencing, 500 ng of genomic DNA from each sample was digested by EcoRI overnight, followed by boiling for 5 min and incubation in 0.3 M NaOH at 50° C. for 15 min. […] Efficiency of bisulfite conversion was monitored by the presence of unconverted C residues in non-CpG regions, which were only seldom seen. […]

[2] = 100 nM, applied only during the first 48 hours after fusion

CCCCCCCCCCCCCCCc1cccc(O)c1C(=O)O [Anacardic acid]
Effects (on reprogramming) ([1]; 5 μM, applied only during the first 48 hours after fusion): mild reprogramming deficit;

CC(/C=C/C(=O)NO)=C\[C@@H](C)C(=O)c1ccc(N(C)C)cc1 [TSA, Trichostatin A]
Effects (on reprogramming) [1, 2]: pro-differentiation | Effects (toxicity to the cells) [1, 2]: toxic

N[C@@H]1C[C@H]1c1ccccc1 (racemic) [Tranylcypromine]
Effects (on reprogramming) ([1]; 2 μM, applied only during the first 48 hours after fusion): mild reprogramming deficit

B1: shRNA-G9a: short hairpin RNA for mouse G9a, …, cloned into retroviral vector pUEG (nucleic acid, listed as Mus musculus)
chain: TCTATCGCCTTGAGCCGTTGGCCTTCAGATAGGCTGATTTGGTTGGTGTCTTGCTCTTTCTGTGGGAAGGCTGCGGCTCACTTCCTTCTGACTTCTTGATAATTTTGCATTAGACATTTAACTCTTCTTTCTATGATCTTTCCTTCTAGACACTGAGTTTTTTGGTTGTTGCCTAAAACCTTTTCAGAAATCCCTTCCCTCGCCATCACACTGACATGAGTGTGGGTCTTCCTGGTCCCCACAGTTTGCCTAGTTCTGAGGAAGCATCGAATTCTGGGAACGCCTCATCAATGCCTGCAGTTTTTCATCCCGAGAACTATTCTTGCTTACAAGGGTCTGCTACTGAGATGCTCTGCACAGAGGCTGCCTCTCCTCGCCCTTCCTCTGAAGACCTGCCTCTTCAAGGCAGCCCTGATTCTTCTACCAGTCCCAAACAAAAGCTCTCAAGTCCTGAGGCTGACAAGGGCCCTGAGGAGGAGGAGAACAAGGTCCTTGCCAGGAAGCAGAAGATGCGGACTGTGTTCTCTCAGGCCCAGCTGTGTGCACTCAAGGACAGGTTTCAGAAGCAGAAGTACCTCAGCCTCCAGCAGATGCAAGAACTCTCCTCCATTCTGAACCTGAGCTATAAGCAGGTTAAGACCTGGTTTCAAAACCAAAGGATGAAGTGCAAGCGGTGGCAGAAAAACCAGTGGTTGAAGACTAGCAATGGTCTGATTCAGAAGGGCTCAGCACCAGTGGAGTATCCCAGCATCCATTGCAGCTATCCCCAGGGCTATCTGGTGAACGCATCTGGAAGCCTTTCCATGTGGGGCAGCCAGACTTGGACCAACCCAACTTGGAGCAGCCAGACCTGGACCAACCCAACTTGGAACAACCAGACCTGGACCAACCCAACTTGGAGCAGCCAGGCCTGGACCGCTCAGTCCTGGAACGGCCAGCCTTGGAATGCTGCTCCGCTCCATAACTTCGGGGAGGACTTTCTGCAGCCTTACGTACAGTTGCAGCAAAACTTCTCTGCCAGTGATTTGGAGGTGAATTTGGAAGCCACTAGGGAAAGCCATGCGCATTTTAGCACCCCACAAGCCTTGGAATTATTCCTGAACTACTCTGTGACTCCACCAGGTGAAATATGAGACTTACGCAACATCTGGGCTTAAAGTCAGGGCAAAGCCAGGTTCCTTCCTTCTTCCAAATATTTTCATATTTTTTTTAAAGATTTATTTATTCATTATATGTAAGTACACTGTAGCTGTCTTCAGACACTCCAGAAGAGGGCGTCAGATCTTGTTACGTATGGTTGTGAGCCACCATGTGGTTGCTGGGATTTGAACTCCTGACCTTCGGAAGAGCAGTCGG
modifications: cloned into retroviral vector pUEG
notes: short hairpin RNA for mouse G9a, …, cloned into retroviral vector pUEG
expression of endogenous Oct4 (Oct4; adult NSCs, conventional and quantitative PCR): partially re-activated | mRNA abundance of Oct4 expression (Oct4; bulk adult NSC cultures, relative to that in ESCs): around 10% | increase in the reprogramming frequency ([1]; day 2, expressed in CIPOE NSCs): 110% | efficacy of ESC-induced Oct4-GFP re-activation ([1]; day 2 and day 4, expressed in CIPOE NSCs): significantly enhanced | increase in the reprogramming frequency ([1]; day 4, expressed in CIPOE NSCs): 26% | expression of endogenous G9a (G9a): knocked down | DNA methylation in Oct4 promoter regions (Oct4 promoter): considerably decreased
